T1: CSABP (cyclosporin A-binding protein), endogenous in MH14 cells (human, UniProt Q9H6S0 1-1430)
T1 construct: also called CSABP protein; CSABP molecule
T1 sequence: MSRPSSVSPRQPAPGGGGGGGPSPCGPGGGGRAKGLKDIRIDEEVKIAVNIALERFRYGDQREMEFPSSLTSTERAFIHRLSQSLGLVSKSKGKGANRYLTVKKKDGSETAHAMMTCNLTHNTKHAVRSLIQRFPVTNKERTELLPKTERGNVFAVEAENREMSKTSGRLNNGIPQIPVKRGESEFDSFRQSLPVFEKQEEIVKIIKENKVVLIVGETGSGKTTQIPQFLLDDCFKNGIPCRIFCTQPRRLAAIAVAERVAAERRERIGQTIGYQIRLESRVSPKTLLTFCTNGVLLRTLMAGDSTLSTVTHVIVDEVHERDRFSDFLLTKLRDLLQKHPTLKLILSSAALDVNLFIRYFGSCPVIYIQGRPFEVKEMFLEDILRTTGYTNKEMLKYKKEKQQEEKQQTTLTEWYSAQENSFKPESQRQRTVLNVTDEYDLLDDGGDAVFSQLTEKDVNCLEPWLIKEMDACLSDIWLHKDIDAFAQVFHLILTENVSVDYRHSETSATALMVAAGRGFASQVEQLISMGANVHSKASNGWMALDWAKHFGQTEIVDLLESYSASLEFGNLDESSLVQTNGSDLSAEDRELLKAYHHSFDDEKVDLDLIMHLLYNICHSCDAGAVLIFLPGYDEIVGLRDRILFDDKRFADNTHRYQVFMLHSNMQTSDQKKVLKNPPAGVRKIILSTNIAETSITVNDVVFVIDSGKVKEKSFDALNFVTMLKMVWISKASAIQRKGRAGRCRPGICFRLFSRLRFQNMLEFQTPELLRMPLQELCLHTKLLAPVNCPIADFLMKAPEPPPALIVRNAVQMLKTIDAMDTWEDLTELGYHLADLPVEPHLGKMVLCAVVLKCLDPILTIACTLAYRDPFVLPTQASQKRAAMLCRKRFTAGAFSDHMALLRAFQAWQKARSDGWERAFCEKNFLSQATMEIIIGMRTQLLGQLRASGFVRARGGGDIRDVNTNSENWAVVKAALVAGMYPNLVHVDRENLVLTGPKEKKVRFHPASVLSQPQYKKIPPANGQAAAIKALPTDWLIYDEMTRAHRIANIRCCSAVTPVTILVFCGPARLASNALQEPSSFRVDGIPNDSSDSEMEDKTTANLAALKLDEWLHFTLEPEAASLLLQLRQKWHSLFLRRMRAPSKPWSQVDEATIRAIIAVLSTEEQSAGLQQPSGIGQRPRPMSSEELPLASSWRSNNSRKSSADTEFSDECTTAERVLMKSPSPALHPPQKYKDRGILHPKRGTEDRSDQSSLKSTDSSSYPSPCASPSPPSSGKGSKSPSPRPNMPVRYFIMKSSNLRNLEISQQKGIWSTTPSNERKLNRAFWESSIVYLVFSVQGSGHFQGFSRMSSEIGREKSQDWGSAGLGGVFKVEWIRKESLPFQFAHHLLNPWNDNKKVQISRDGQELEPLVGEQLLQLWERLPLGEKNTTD

B1: cyclophilin B (CyPB) (enzyme)
chain: not shown
B2: Protein G Sepharose (other, UniProt P19909 303-497, looked up)
chain: TYKLILNGKTLKGETTTEAVDAATAEKVFKQYANDNGVDGEWTYDDATKTFTVTEKPEVIDASELTPAVTTYKLVINGKTLKGETTTEAVDAATAEKVFKQYANDNGVDGEWTYDDATKTFTVTEKPEVIDASELTPAVTTYKLVINGKTLKGETTTKAVDAETAEKAFKQYANDNGVDGVWTYDDATKTFTVTE

Assays:
Protein G Sepharose = target: B2; test: Protein G Sepharose control precipitation from MH14 cell extract, western blot with anti-CyPB antibody
[1] = target: T1, CSABP (cyclosporin A-binding protein), …; test: Protein G Sepharose control precipitation from MH14 cell extract, western blot with anti-CSABP antibody

B1: no binding (Protein G Sepharose).

B2: no binding [1].

Source: patent publication US20110158908A1 (SAPPORO MEDICAL UNIVERSITY, published 2011)
